The results in this text go back to publication PMC3510509, “Binding of two DNA molecules by type II topoisomerases for decatenation” (Nucleic Acids Research, 2012).

The assay concerns the target T1, Mycobacterium smegmatis DNA gyrase subunit A (GyrA) (M. smegmatis, UniProt P48354 1-842).
T1 construct: DNA gyrase subunit A, Mycobacterium smegmatis; also called MsGyrA; M. smegmatis GyrA
As to the kind of experiment: cross-linking; glutaraldehyde; gyrase subunits mixed 1:1 in supercoiling reaction buffer, on ice 30 min, then cross-linked at 37°C for 30 min; products resolved on SDS-PAGE, silver stained. The following applies: both partners purified.

B1: Mycobacterium smegmatis DNA gyrase subunit B (GyrB) (natural protein, M. smegmatis, UniProt A0QNE0 1-675, looked up)
chain: MAAQKNNAPKEYGADSITILEGLEAVRKRPGMYIGSTGERGLHHLIWEVVDNAVDEAMAGFATRVDVKIHADGSVEVRDDGRGIPVEMHATGMPTIDVVMTQLHAGGKFDGETYAVSGGLHGVGVSVVNALSTRLEATVLRDGYEWFQYYDRSVPGKLKQGGETKETGTTIRFWADPEIFETTDYNFETVARRLQEMAFLNKGLTIELTDERVTAEEVVDDVVKDTAEAPKTADEKAAEATGPSKVKHRVFHYPGGLVDYVKHINRTKTPIQQSIIDFDGKGPGHEVEIAMQWNAGYSESVHTFANTINTHEGGTHEEGFRAALTSVVNRYAKDKKLLKDKDPNLTGDDIREGLAAVISVKVAEPQFEGQTKTKLGNTEVKSFVQKICNEQLQHWFEANPAEAKTVVNKAVSSAQARIAARKARELVRRKSATDIGGLPGKLADCRSTDPSKSELYVVEGDSAGGSAKSGRDSMFQAILPLRGKIINVEKARIDRVLKNTEVQSIITALGTGIHDEFDISKLRYHKIVLMADADVDGQHISTLLLTLLFRFMKPLVENGHIFLAQPPLYKLKWQRSEPEFAYSDRERDGLLEAGRAAGKKINVDDGIQRYKGLGEMDAKELWETTMDPSVRVLRQVTLDDAAAADELFSILMGEDVEARRSFITRNAKDVRFLDV
notes: DNA gyrase subunit B, Mycobacterium smegmatis, wild type; also called MsGyrB; M. smegmatis GyrB
Consider B1, for which the binding result is reported as “binds”.
